Measurements taken from US20030044400A1, “Composition and method for treating cells” (priority 2001, published 2003).

Assays:
[1] = tested on: LNCaP cells; experiment: Fetuin-induced apoptosis, Hoechst staining confirmed by MTS assay; assay type: cell-based, Human
Method: The purified fetuin was tested on various cancer cell lines. […] The DNA condensation and breakage of nuclei which are the characteristics for apoptosis were observed by staining the cell with Hoechst dye at 0.1 ug/ml.
Fetuin purified by modified Spiro method was further incubated with Zinc Acetate or Barium Acetate (0.25M) at room temperature for 1 hr. Free ions were removed by repetitive concentration against 20 volumes of PBS three times. Fetuin, Zn-charged fetuin and Ba-charged fetuin (5 uM) and PBS were then separately incubated with LNCaP cells for 4 hr. Percent of cells under apoptosis was determined by Hoechst staining and confirmed by MTS assay. Each data represents the average of two assays. Zn-charged or Ba-charged fetuin may contain free Zn or Ba (about 30 uM). However, all the cell lines are not affected by Zn or Ba alone at all concentrations tested (up to 66 uM).
Various concentrations of Zn-charged fetuin prepared as described were incubated with cell lines for 6 hr. Percent of cell under apoptosis was determined by Hoechst staining and confirmed by MTS assay. The concentration of Zn-charged fetuin for the induction of 50% of cells under apoptosis (LD50) was determined. Each data represents the average of three assays.

[2] = tested on: PC-12 cells; experiment: Apoptosis of PC-12 cells in the presence of serum; assay type: cell-based; settings: PC-12 cells in 10% horse serum+5% FBS; 5 uM Fetuin
Method: PC-12 cells were seeded in 10% heat-inactivated horse serum+5% FBS+RPMI 1640 media for 1-2 days and treated with 5 uM Fetuin. […] The apoptosis-inducing activity of Fetuin at high concentration can be applied in therapy of neuroblastoma.

[3] = tested on: PC-3 induced tumor; experiment: Prostate Tumor Inhibition Model (PC-3, nude mice); assay type: in vivo, nude adult male mice; settings: for Avg. Weight Tumor / Avg. Weight mice / Total Weight Tumor: nude mice with PC-3 tumors
Method: The 30-35 g nude adult male mice were used for this study. The inoculum of PC-3 cells applied to induce tumor formation was adjusted with RPMI-1640 to 2×10^7 cells/0.1 ml. To induce tumor formation, a 0.1 ml suspension of PC-3 was injected subcutaneously at a site between the ears using a 26 gauge, ⅜″ needle. The tumors were allowed to grow for 38 days. The mice in the control group received 0.1 ml saline intraperitoneally for 10 days. Mice in the treated group received 10 consecutive 0.1 ml intraperitoneal injections of Fetuin adjusted by dilution in sterile deionized water to deliver dose concentration of 0.1 ml, 0.01 ml and 0.001 ml at 10 mg/ml. Tumors were weighed individually when the mice were sacrificed for subsequent histopathology study.

[4] = Determination of LD50 of Fetuin in Rats; assay type: in vivo, Sprague-Dawley albino rats
Method: The Sprague-Dawley albino rats weighed 170-210 g and were divided into 4 groups, each group including 5 males and 5 females. The control group received 1 ml of saline intraperitoneally for 5 days. The other three groups were given 8.35 mg, 25 mg and 250 mg per kg body wt. of Fetuin 0.1 g/ml. All volumes were made up to 1 ml with sterile pyrogene free saline. The observation period was a least 14 days. If a visible toxic reaction occurs the observation period may be increased until visible signs of toxicity disappear. If any deaths occur during this period, the animal will be immediately autopsied to determine cause of death. During the observation period a careful clinical examination is made each day. These observations include skin and fur, eyes and mucous membranes, respiratory system, circulatory system, autonomic and central nervous system, somatomator activity and behavior patterns. Particular attention will be directed to observation of tremors, convulsions, salivation, diarrhea, lethargy, sleep or coma. Individual weights of the animals are determined shortly before the test substance is administered, and weekly thereafter. Any weight changes are recorded. At the end of the test, the surviving animals are weighed and sacrificed. Prior to sacrifice, blood is drawn from each animal to determine the serum levels of fetuin. After sacrifice, a gross necropsy is done on all animals. Any gross pathological changes are recorded and pertinent tissues preserved in 10% formalin for subsequent histopathology. The observations recorded are tabulated to see if there is any correlation between mortality and/or symptoms and the dose. The LD50 for each sex is determined at 14 days, using the method of Litchfield and Wilcoxon. A dose mortality curve and slope is determined if data justify it. A table of body weight gains or loses is constructed. Necropsy finding is reported.

[5] = Antigenic response after Fetuin injection; assay type: in vivo; settings: mice, rat and rabbits to bovine
Excerpt: However, the species are mice, rat and rabbits to bovine, not human to bovine. The amino acid sequence of Fetuin homologue between species is about 65%. Because the mechanism of Fetuin exerting the drug effect is by binding to the growth factors, this is expected to have less immune response than other protein nature drugs.

[6] = Fetuin 0.001 ml × 10 ip (10 mg/ml)
[7] = Fetuin 0.01 ml × 10 ip (10 mg/ml)
[8] = Fetuin 0.1 ml × 10 ip (10 mg/ml)
[9] = rats, 5 female, 8.35 mg/kg Fetuin
[10] = rats, 5 female, 8.35 mg/kg Fetuin ip
[11] = rats, 5 female, 25 mg/kg Fetuin
[12] = rats, 5 female, 25 mg/kg Fetuin ip
[13] = rats, 5 female, 250 mg/kg Fetuin
[14] = rats, 5 female, 250 mg/kg Fetuin ip
[15] = rats, 5 male, 8.35 mg/kg Fetuin
[16] = rats, 5 male, 8.35 mg/kg Fetuin ip
[17] = rats, 5 male, 25 mg/kg Fetuin ip
[18] = rats, 5 male, 250 mg/kg Fetuin ip

Substance: Fetuin: Fetal bovine fetuin purified from fetal bovine serum by modified Spiro method; 60 Kd glycoprotein, homologue of alpha 2-HS glycoprotein
- LD50 of Fetuin-induced Apoptosis ([1]; LNCaP, Zn-charged fetuin, 6 hr, concentration for 50% of cells under apoptosis, average of three assays): 1 µM
- induction of apoptosis ([1]; LNCaP, purified fetuin, Hoechst dye 0.1 ug/ml): strongly induced apoptosis
- apoptotic activity by method of preparation ([1]; Pederson Method (Sigma) vs modified Spiro method): induced apoptosis
- apoptosis-inducing activity ([1]; Substitution of Zinc by Barium): completely abolished
- apoptosis-inducing activity in LNCaP cells ([1]; fetal vs mature fetuins at the same concentration): strongly induced apoptosis
- apoptosis-inducing activity [2]: apoptosis-inducing activity was observed
- prostate tumor size compared to the control group ([3]; highest doses): 40%
- Avg. Weight Tumor [3, 6]: 2.03 g
- Avg. Weight mice [3, 6]: 33.9 g
- Total Weight Tumor [3, 6]: 6.1 g
- Avg. Weight Tumor [3, 7]: 2.08 g
- Avg. Weight mice [3, 7]: 35.3 g
- Total Weight Tumor [3, 7]: 6.24 g
- Avg. Weight Tumor [3, 8]: 1.01 g
- Avg. Weight mice [3, 8]: 32.0 g
- Total Weight Tumor [3, 8]: 3.04 g
- necropsy ([4]; all of the rats, 8.35, 25 and 250 mg per kg): appeared to be normal
- Spleen Wt. (gm) [4, 9]: 0.513 gm
- Thymus Wt. (gm) [4, 9]: 0.481 gm
- Final Wt. (gm) [4, 10]: 203.5 gm
- Initial Wt. (gm) [4, 10]: 170.2 gm
- Wt. Gain Total (gm) [4, 10]: 33.3 gm
- Spleen Wt. (gm) [4, 11]: 0.714 gm
- Thymus Wt. (gm) [4, 11]: 0.485 gm
- Final Wt. (gm) [4, 12]: 218.3 gm
- Initial Wt. (gm) [4, 12]: 190.3 gm
- Wt. Gain Total (gm) [4, 12]: 28.0 gm
- Spleen Wt. (gm) [4, 13]: 0.578 gm
- Thymus Wt. (gm) [4, 13]: 0.619 gm
- Final Wt. (gm) [4, 14]: 201.7 gm
- Initial Wt. (gm) [4, 14]: 164.2 gm
- Wt. Gain Total (gm) [4, 14]: 37.5 gm
- Spleen Wt. (gm) [4, 15]: 0.745 gm
- Thymus Wt. (gm) [4, 15]: 0.599 gm
- Final Wt. (gm) [4, 16]: 283.7 gm
- Initial Wt. (gm) [4, 16]: 233.5 gm
- Wt. Gain Total (gm) [4, 16]: 50.2 gm
- Spleen Wt. (gm) ([4]; rats, 5 male, 25 mg/kg Fetuin): 0.796 gm
- Thymus Wt. (gm) ([4]; rats, 5 male, 25 mg/kg Fetuin): 0.525 gm
- Final Wt. (gm) [4, 17]: 227.5 gm
- Initial Wt. (gm) [4, 17]: 174.5 gm
- Wt. Gain Total (gm) [4, 17]: 53.0 gm
- Spleen Wt. (gm) ([4]; rats, 5 male, 250 mg/kg Fetuin): 0.777 gm
- Thymus Wt. (gm) ([4]; rats, 5 male, 250 mg/kg Fetuin): 0.595 gm
- Final Wt. (gm) [4, 18]: 253.3 gm
- Initial Wt. (gm) [4, 18]: 186.5 gm
- Wt. Gain Total (gm) [4, 18]: 66.8 gm
- mortality ([4]; rats, 8.35, 25 and 250 mg per kg ip, observation at least 14 days): no mortality
- hypersensitivity reaction after Fetuin injection [5]: no hypersensitivity reaction was shown
